In patent publication US20120045438A1 (Janssen / Centocor, published 2012):

Target: T1, human IL-13 R130Q variant (R110Q of the mature chain) (human, UniProt P35225 35-146, Biotinylated on amines (NHS-LC-biotin, 4:1) in ELISA, panning and competition assays. The letters are unchanged.)
T1 construct: R130Q counts from Met 1 of the signal peptide, R110Q on the mature chain; Bought from Peprotech; also called IL-13 R110Q; b-R130Q
Assay: single-point (10 nM) phage Fab ELISA on biotinylated IL-13 R130Q

Binder | % of Lc16Hc7
Phage # 54 Fab (IL-13-142 library) (Fab, V domains shown, Fab on phage pIX) VH: QVTLKESGPVLVKPTETLTLTCTVSGFSLSTYGMGVGWIRQPPGKALEWLAHIWWDDVKRYNPALKSRLTISKDTSKSQVVLTMTNMDPVDTATYYCARMGSDYDVWFDYWGQGTLVTVSS VL: DIQMTQSPSTLSASVGDRVTITCRASKSISKYLAWYQQKPGKAPKLLIYSGSTLQSGVPSRFSGSGSGTEFTLTISSLQPDDFATYYCQQHDWGPYTFGGGTKVEIK | 361%
Phage # 21 Fab (IL-13-142 library) (Fab, V domains shown, Fab on phage pIX) VH: QVTLKESGPVLVKPTETLTLTCTVSGFSLSTYGMGVGWIRQPPGKALEWLAHIWWDDVKRYNPALKSRLTISKDTSKSQVVLTMTNMDPVDTATYYCARMGSDYDVWFDYWGQGTLVTVSS VL: DIQMTQSPSTLSASVGDRVTITCRASKSISKYLAWYQQKPGKAPKLLIYSGSTLQSGVPSRFSGSGSGTEFTLTISSLQPDDFATYYCQQWSDGPYTFGGGTKVEIK | 276%
Phage # 31 Fab (IL-13-142 library) (Fab, V domains shown, Fab on phage pIX) VH: QVTLKESGPVLVKPTETLTLTCTVSGFSLSTYGMGVGWIRQPPGKALEWLAHIWWDDVKRYNPALKSRLTISKDTSKSQVVLTMTNMDPVDTATYYCARMGSDYDVWFDYWGQGTLVTVSS VL: DIQMTQSPSTLSASVGDRVTITCRASKSISKYLAWYQQKPGKAPKLLIYSGSTLQSGVPSRFSGSGSGTEFTLTISSLQPDDFATYYCQQHFRRPYTFGGGTKVEIK | 288%
Phage # 27 Fab (IL-13-142 library) (Fab, V domains shown, Fab on phage pIX) VH: QVTLKESGPVLVKPTETLTLTCTVSGFSLSTYGMGVGWIRQPPGKALEWLAHIWWDDVKRYNPALKSRLTISKDTSKSQVVLTMTNMDPVDTATYYCARMGSDYDVWFDYWGQGTLVTVSS VL: DIQMTQSPSTLSASVGDRVTITCRASKSISKYLAWYQQKPGKAPKLLIYSGSTLQSGVPSRFSGSGSGTEFTLTISSLQPDDFATYYCQQHNDSPYTFGGGTKVEIK | 238%
Phage # 29 Fab (IL-13-142 library) (Fab, V domains shown, Fab on phage pIX) VH: QVTLKESGPVLVKPTETLTLTCTVSGFSLSTYGMGVGWIRQPPGKALEWLAHIWWDDVKRYNPALKSRLTISKDTSKSQVVLTMTNMDPVDTATYYCARMGSDYDVWFDYWGQGTLVTVSS VL: DIQMTQSPSTLSASVGDRVTITCRASKSISKYLAWYQQKPGKAPKLLIYSGSTLQSGVPSRFSGSGSGTEFTLTISSLQPDDFATYYCQQHWMAPYTFGGGTKVEIK | 182%
Phage # 09 Fab (IL-13-142 library) (Fab, V domains shown, Fab on phage pIX) VH: QVTLKESGPVLVKPTETLTLTCTVSGFSLSTYGMGVGWIRQPPGKALEWLAHIWWDDVKRYNPALKSRLTISKDTSKSQVVLTMTNMDPVDTATYYCARMGSDYDVWFDYWGQGTLVTVSS VL: DIQMTQSPSTLSASVGDRVTITCRASKSISKYLAWYQQKPGKAPKLLIYSGSTLQSGVPSRFSGSGSGTEFTLTISSLQPDDFATYYCQQHLDVPYTFGGGTKVEIK | 171%
Phage # 22 Fab (IL-13-142 library) (Fab, V domains shown, Fab on phage pIX) VH: QVTLKESGPVLVKPTETLTLTCTVSGFSLSTYGMGVGWIRQPPGKALEWLAHIWWDDVKRYNPALKSRLTISKDTSKSQVVLTMTNMDPVDTATYYCARMGSDYDVWFDYWGQGTLVTVSS VL: DIQMTQSPSTLSASVGDRVTITCRASKSISKYLAWYQQKPGKAPKLLIYSGSTLQSGVPSRFSGSGSGTEFTLTISSLQPDDFATYYCQQHDPGPYTFGGGTKVEIK | 313%
Phage # 16 Fab (IL-13-142 library) (Fab, V domains shown, Fab on phage pIX) VH: QVTLKESGPVLVKPTETLTLTCTVSGFSLSTYGMGVGWIRQPPGKALEWLAHIWWDDVKRYNPALKSRLTISKDTSKSQVVLTMTNMDPVDTATYYCARMGSDYDVWFDYWGQGTLVTVSS VL: DIQMTQSPSTLSASVGDRVTITCRASKSISKYLAWYQQKPGKAPKLLIYSGSTLQSGVPSRFSGSGSGTEFTLTISSLQPDDFATYYCQQHVGGPYTFGGGTKVEIK | 206%
Phage # 35 Fab (IL-13-142 library) (Fab, V domains shown, Fab on phage pIX) VH: QVTLKESGPVLVKPTETLTLTCTVSGFSLSTYGMGVGWIRQPPGKALEWLAHIWWDDVKRYNPALKSRLTISKDTSKSQVVLTMTNMDPVDTATYYCARMGSDYDVWFDYWGQGTLVTVSS VL: DIQMTQSPSTLSASVGDRVTITCRASKSISKYLAWYQQKPGKAPKLLIYSGSTLQSGVPSRFSGSGSGTEFTLTISSLQPDDFATYYCQQHDRGPYTFGGGTKVEIK | 296%
Phage # 15 Fab (IL-13-142 library) (Fab, V domains shown, Fab on phage pIX) VH: QVTLKESGPVLVKPTETLTLTCTVSGFSLSTYGMGVGWIRQPPGKALEWLAHIWWDDVKRYNPALKSRLTISKDTSKSQVVLTMTNMDPVDTATYYCARMGSDYDVWFDYWGQGTLVTVSS VL: DIQMTQSPSTLSASVGDRVTITCRASKSISKYLAWYQQKPGKAPKLLIYSGSTLQSGVPSRFSGSGSGTEFTLTISSLQPDDFATYYCQQPLDAPYTFGGGTKVEIK | 154%
Phage # 04 Fab (IL-13-142 library) (Fab, V domains shown, Fab on phage pIX) VH: QVTLKESGPVLVKPTETLTLTCTVSGFSLSTYGMGVGWIRQPPGKALEWLAHIWWDDVKRYNPALKSRLTISKDTSKSQVVLTMTNMDPVDTATYYCARMGSDYDVWFDYWGQGTLVTVSS VL: DIQMTQSPSTLSASVGDRVTITCRASKSISKYLAWYQQKPGKAPKLLIYSGSTLQSGVPSRFSGSGSGTEFTLTISSLQPDDFATYYCQQQDLGPYTFGGGTKVEIK | 127%
Phage # 05 Fab (IL-13-142 library) (Fab, V domains shown, Fab on phage pIX) VH: QVTLKESGPVLVKPTETLTLTCTVSGFSLSTYGMGVGWIRQPPGKALEWLAHIWWDDVKRYNPALKSRLTISKDTSKSQVVLTMTNMDPVDTATYYCARMGSDYDVWFDYWGQGTLVTVSS VL: DIQMTQSPSTLSASVGDRVTITCRASKSISKYLAWYQQKPGKAPKLLIYSGSTLQSGVPSRFSGSGSGTEFTLTISSLQPDDFATYYCQQHVSGPYTFGGGTKVEIK | 320%
Phage # 36 Fab (IL-13-142 library) (Fab, V domains shown, Fab on phage pIX) VH: QVTLKESGPVLVKPTETLTLTCTVSGFSLSTYGMGVGWIRQPPGKALEWLAHIWWDDVKRYNPALKSRLTISKDTSKSQVVLTMTNMDPVDTATYYCARMGSDYDVWFDYWGQGTLVTVSS VL: DIQMTQSPSTLSASVGDRVTITCRASKSISKYLAWYQQKPGKAPKLLIYSGSTLQSGVPSRFSGSGSGTEFTLTISSLQPDDFATYYCQQHELGPYTFGGGTKVEIK | 196%
Phage # 30 Fab (IL-13-142 library) (Fab, V domains shown, Fab on phage pIX) VH: QVTLKESGPVLVKPTETLTLTCTVSGFSLSTYGMGVGWIRQPPGKALEWLAHIWWDDVKRYNPALKSRLTISKDTSKSQVVLTMTNMDPVDTATYYCARMGSDYDVWFDYWGQGTLVTVSS VL: DIQMTQSPSTLSASVGDRVTITCRASKSISKYLAWYQQKPGKAPKLLIYSGSTLQSGVPSRFSGSGSGTEFTLTISSLQPDDFATYYCQQHLWGPYTFGGGTKVEIK | 140%
Phage # 01 Fab (IL-13-142 library) (Fab, V domains shown, Fab on phage pIX) VH: QVTLKESGPVLVKPTETLTLTCTVSGFSLSTYGMGVGWIRQPPGKALEWLAHIWWDDVKRYNPALKSRLTISKDTSKSQVVLTMTNMDPVDTATYYCARMGSDYDVWFDYWGQGTLVTVSS VL: DIQMTQSPSTLSASVGDRVTITCRASKSISKYLAWYQQKPGKAPKLLIYSGSTLQSGVPSRFSGSGSGTEFTLTISSLQPDDFATYYCQQHWWGPYTFGGGTKVEIK | 222%
Phage # 32 Fab (IL-13-142 library) (Fab, V domains shown, Fab on phage pIX) VH: QVTLKESGPVLVKPTETLTLTCTVSGFSLSTYGMGVGWIRQPPGKALEWLAHIWWDDVKRYNPALKSRLTISKDTSKSQVVLTMTNMDPVDTATYYCARMGSDYDVWFDYWGQGTLVTVSS VL: DIQMTQSPSTLSASVGDRVTITCRASKSISKYLAWYQQKPGKAPKLLIYSGSTLQSGVPSRFSGSGSGTEFTLTISSLQPDDFATYYCQQHLGTPYTFGGGTKVEIK | 228%
Phage # 06 Fab (IL-13-142 library) (Fab, V domains shown, Fab on phage pIX) VH: QVTLKESGPVLVKPTETLTLTCTVSGFSLSTYGMGVGWIRQPPGKALEWLAHIWWDDVKRYNPALKSRLTISKDTSKSQVVLTMTNMDPVDTATYYCARMGSDYDVWFDYWGQGTLVTVSS VL: DIQMTQSPSTLSASVGDRVTITCRASKSISKYLAWYQQKPGKAPKLLIYSGSTLQSGVPSRFSGSGSGTEFTLTISSLQPDDFATYYCQQPLTHPYTFGGGTKVEIK | 232%
Phage # 13 Fab (IL-13-142 library) (Fab, V domains shown, Fab on phage pIX) VH: QVTLKESGPVLVKPTETLTLTCTVSGFSLSTYGMGVGWIRQPPGKALEWLAHIWWDDVKRYNPALKSRLTISKDTSKSQVVLTMTNMDPVDTATYYCARMGSDYDVWFDYWGQGTLVTVSS VL: DIQMTQSPSTLSASVGDRVTITCRASKSISKYLAWYQQKPGKAPKLLIYSGSTLQSGVPSRFSGSGSGTEFTLTISSLQPDDFATYYCQQHEWGPYTFGGGTKVEIK | 196%
Phage # 18 Fab (IL-13-142 library) (Fab, V domains shown, Fab on phage pIX) VH: QVTLKESGPVLVKPTETLTLTCTVSGFSLSTYGMGVGWIRQPPGKALEWLAHIWWDDVKRYNPALKSRLTISKDTSKSQVVLTMTNMDPVDTATYYCARMGSDYDVWFDYWGQGTLVTVSS VL: DIQMTQSPSTLSASVGDRVTITCRASKSISKYLAWYQQKPGKAPKLLIYSGSTLQSGVPSRFSGSGSGTEFTLTISSLQPDDFATYYCQQWDGGPYTFGGGTKVEIK | 231%
Phage # 11 Fab (IL-13-142 library) (Fab, V domains shown, Fab on phage pIX) VH: QVTLKESGPVLVKPTETLTLTCTVSGFSLSTYGMGVGWIRQPPGKALEWLAHIWWDDVKRYNPALKSRLTISKDTSKSQVVLTMTNMDPVDTATYYCARMGSDYDVWFDYWGQGTLVTVSS VL: DIQMTQSPSTLSASVGDRVTITCRASKSISKYLAWYQQKPGKAPKLLIYSGSTLQSGVPSRFSGSGSGTEFTLTISSLQPDDFATYYCQQQDVGPYTFGGGTKVEIK | 229%
Phage # 10 Fab (IL-13-142 library) (Fab, V domains shown, Fab on phage pIX) VH: QVTLKESGPVLVKPTETLTLTCTVSGFSLSTYGMGVGWIRQPPGKALEWLAHIWWDDVKRYNPALKSRLTISKDTSKSQVVLTMTNMDPVDTATYYCARMGSDYDVWFDYWGQGTLVTVSS VL: DIQMTQSPSTLSASVGDRVTITCRASKSISKYLAWYQQKPGKAPKLLIYSGSTLQSGVPSRFSGSGSGTEFTLTISSLQPDDFATYYCQQHLWGPYTFGGGTKVEIK | 318%
